{"source": "the RNAGym collection of RNA variant scans (doi:10.7554/elife.90254)", "parents": {"B1": {"name": "LINE1-full (parent)", "chain": "UACGUAGGUGGUUUUCCCCUGAUAGUGCUAAGGGGGCCUGGAAGUUUGGACUGGGCAGAGCUCAACACAGCGUGGCAAAGUGGCUGUGGCUAGACUGCCUCUCUGGAUUCCUCGUCACUCAGCAGGGCAUCUCUGAGAGAAAUGCC"}}}
{"variants_of": "B1", "assay": "self-cleavage, relative activity (ratio to wild type); higher = more cleavage; in vitro, sequencing; the parent is a self-cleaving ribozyme"}
{"variant": "A42C C145U", "self-cleavage": 1.53}
{"variant": "A43C C66U", "self-cleavage": 0.04}
{"variant": "G7C U85C", "self-cleavage": 1.26}
{"variant": "U5C G36C", "self-cleavage": 1.25}
{"variant": "U46G A117G", "self-cleavage": 2.26}
{"variant": "G27A A42U", "self-cleavage": 0.99}
{"variant": "U9A A31G", "self-cleavage": 1.35}
{"variant": "U12C U143C", "self-cleavage": 1.46}
{"variant": "U9A U12G", "self-cleavage": 0.67}
{"variant": "G137A A140G", "self-cleavage": 1.4}
{"variant": "A6G G32C", "self-cleavage": 0.65}
{"variant": "U9A A78G", "self-cleavage": 1.13}
{"variant": "U14A U29A", "self-cleavage": 1.51}
{"variant": "G7C U81A", "self-cleavage": 2.25}
{"variant": "A57C G72U", "self-cleavage": 0.03}
{"variant": "U39C U112A", "self-cleavage": 1.45}
{"variant": "A59G U143C", "self-cleavage": 0.1}
{"variant": "A22U C38A", "self-cleavage": 0.64}
{"variant": "U46A G75A", "self-cleavage": 0.9}
{"variant": "C71A", "self-cleavage": 0.2}
{"variant": "G105A G114C", "self-cleavage": 1.42}
{"variant": "A78G C116A", "self-cleavage": 0.87}
{"variant": "A22U U119C", "self-cleavage": 1.52}
{"variant": "A94C A140G", "self-cleavage": 0.04}
{"variant": "U5A U9A", "self-cleavage": 0}
{"variant": "C28A A94G", "self-cleavage": 0}
{"variant": "U29C A42G", "self-cleavage": 1.66}
{"variant": "U5A A79U", "self-cleavage": 0.77}
{"variant": "G4A U112C", "self-cleavage": 1.31}
{"variant": "U46A A64C", "self-cleavage": 0.24}
{"variant": "G33U", "self-cleavage": 1.27}
{"variant": "G8C U143A", "self-cleavage": 2.06}
{"variant": "U12G A77G", "self-cleavage": 1.41}
{"variant": "U13A U46A", "self-cleavage": 1.21}
{"variant": "U73A C113A", "self-cleavage": 0.23}
{"variant": "G106A U132G", "self-cleavage": 1.67}
{"variant": "A24U A30G", "self-cleavage": 1.09}
{"variant": "C128U A140U", "self-cleavage": 1.36}
{"variant": "U102C A121G", "self-cleavage": 1.06}
{"variant": "A50G A78G", "self-cleavage": 0.53}
{"variant": "A30U U132A", "self-cleavage": 1.22}
{"variant": "U109A A141G", "self-cleavage": 1.76}
{"variant": "U14C U112C", "self-cleavage": 1.19}
{"variant": "G41A C95U", "self-cleavage": 0.12}
{"variant": "A42U A107G", "self-cleavage": 1.25}
{"variant": "A77U A107C", "self-cleavage": 1.21}
{"variant": "U115G G125U", "self-cleavage": 0.54}
{"variant": "A22U A78G", "self-cleavage": 1.54}
{"variant": "U46G A69U", "self-cleavage": 0.1}
{"variant": "U26A A136U", "self-cleavage": 1.2}
{"variant": "A77U A117U", "self-cleavage": 1.21}
{"variant": "A124U", "self-cleavage": 1.4}
{"variant": "U39C U130G", "self-cleavage": 1.75}
{"variant": "G40U U130C", "self-cleavage": 1.32}
{"variant": "G4A A31G", "self-cleavage": 0.6}
{"variant": "U13C A67G", "self-cleavage": 0.71}
{"variant": "U12A U109A", "self-cleavage": 0.65}
{"variant": "G72U U130A", "self-cleavage": 1.07}
{"variant": "U5A G40A", "self-cleavage": 1.01}
{"variant": "U15A A43U", "self-cleavage": 0.87}
{"variant": "G55A U112C", "self-cleavage": 0.14}
{"variant": "U46C A142G", "self-cleavage": 1.35}
{"variant": "A6G U9C", "self-cleavage": 1.16}
{"variant": "A79U U85A", "self-cleavage": 0.07}
{"variant": "C17U A59U", "self-cleavage": 0.51}
{"variant": "A77G C98U", "self-cleavage": 0.54}
{"variant": "U112A U115C", "self-cleavage": 1.3}
{"variant": "G105A U109C", "self-cleavage": 1.46}
{"variant": "U5C A78G", "self-cleavage": 1.18}
{"variant": "U20A G135U", "self-cleavage": 0.43}
{"variant": "U104C C120U", "self-cleavage": 1.45}
{"variant": "A43G A136G", "self-cleavage": 1.5}
{"variant": "C66U A141G", "self-cleavage": 0.03}
{"variant": "U12C G122U", "self-cleavage": 1.04}
{"variant": "C101U A138G", "self-cleavage": 1.69}
{"variant": "A65G C131G", "self-cleavage": 0.06}
{"variant": "U9A U112C", "self-cleavage": 1.32}
{"variant": "A42U C128G", "self-cleavage": 0.87}
{"variant": "G36A A117G", "self-cleavage": 1.34}
{"variant": "A69U U73A", "self-cleavage": 0.04}
{"variant": "U13A C98G", "self-cleavage": 0.09}
{"variant": "G74U", "self-cleavage": 1.4}
{"variant": "G4A U45C", "self-cleavage": 0.57}
{"variant": "A79G C133A", "self-cleavage": 1.12}
{"variant": "A24U A107U", "self-cleavage": 1.64}
{"variant": "U1G A78G", "self-cleavage": 1.25}
{"variant": "U46G U91C", "self-cleavage": 0.74}
{"variant": "C38U U119C", "self-cleavage": 1.47}
{"variant": "G106U A136U", "self-cleavage": 0.83}
{"variant": "A24G U62C", "self-cleavage": 0.14}
{"variant": "U62G U104C", "self-cleavage": 0.08}
{"variant": "G8U U15C", "self-cleavage": 1.62}
{"variant": "A31G G135A", "self-cleavage": 1.09}
{"variant": "C37U U102A", "self-cleavage": 1.19}
{"variant": "A43G U52C", "self-cleavage": 1.13}
{"variant": "U26A C66A", "self-cleavage": 0.05}
{"variant": "G88U A142G", "self-cleavage": 0}
{"variant": "U12A G137U", "self-cleavage": 1.05}
{"variant": "U9G U73C", "self-cleavage": 1.24}
{"variant": "U15A U85C", "self-cleavage": 0.03}
{"variant": "G21C U109C", "self-cleavage": 1.18}
{"variant": "G25A G54U", "self-cleavage": 0.45}
{"variant": "U5C U46A", "self-cleavage": 1.29}
{"variant": "U20C A136U", "self-cleavage": 1.51}
{"variant": "U23C U45A", "self-cleavage": 1.25}
{"variant": "G49U U108C", "self-cleavage": 1.5}
{"variant": "U81A A142G", "self-cleavage": 2.07}
{"variant": "G8A A107G", "self-cleavage": 1.58}
{"variant": "A22C U115A", "self-cleavage": 1.46}
{"variant": "A43G A117C", "self-cleavage": 1.85}
{"variant": "G7A U26C", "self-cleavage": 2}
{"variant": "A67G U119A", "self-cleavage": 0.31}
{"variant": "G83A U143C", "self-cleavage": 0.71}
{"variant": "A67G C84U", "self-cleavage": 0.04}
{"variant": "A67G U115G", "self-cleavage": 1.22}
{"variant": "U87C U108A", "self-cleavage": 0.15}
{"variant": "G88A U102A", "self-cleavage": 0.04}
{"variant": "C19U A142G", "self-cleavage": 1.06}
{"variant": "A30U A136G", "self-cleavage": 1.4}
{"variant": "G11A A124U", "self-cleavage": 1.43}
{"variant": "A57U A140U", "self-cleavage": 0.2}
{"variant": "A67U A94U", "self-cleavage": 0.05}
{"variant": "U15C A141U", "self-cleavage": 1.58}
{"variant": "G10A U85C", "self-cleavage": 0.09}
{"variant": "A43G U62C", "self-cleavage": 0.1}
{"variant": "U1G U46G", "self-cleavage": 0.33}
{"variant": "A64U U130A", "self-cleavage": 0.62}
{"variant": "U104C A136U", "self-cleavage": 1.91}
{"variant": "U45C G74U", "self-cleavage": 1.35}
{"variant": "U1A U62G", "self-cleavage": 0.36}
{"variant": "U119A U143G", "self-cleavage": 0.91}
{"variant": "A78G U112C", "self-cleavage": 1.24}
{"variant": "G36A A77G", "self-cleavage": 1.35}
{"variant": "A94G A138U", "self-cleavage": 0.36}
{"variant": "A57U C63A", "self-cleavage": 0.04}
{"variant": "U102C A124C", "self-cleavage": 2.04}
{"variant": "U13C A78G", "self-cleavage": 0.99}
{"variant": "A107U A117G", "self-cleavage": 1.34}
{"variant": "U12G U104C", "self-cleavage": 1.48}
{"variant": "U14C A121U", "self-cleavage": 1.25}
{"variant": "U52C G83A", "self-cleavage": 0.53}
{"variant": "U15C G49A", "self-cleavage": 1.21}
{"variant": "U47A A141G", "self-cleavage": 1.37}
{"variant": "G34C A124G", "self-cleavage": 2.03}
{"variant": "U52A C128U", "self-cleavage": 1.38}
{"variant": "U9G U132A", "self-cleavage": 0.59}
{"variant": "A67U U102A", "self-cleavage": 0.11}
{"variant": "U45C U46A", "self-cleavage": 0.74}
{"variant": "C38U A79G", "self-cleavage": 1.29}
{"variant": "U45C A117G", "self-cleavage": 0}
{"variant": "G8U A59U", "self-cleavage": 0.63}
{"variant": "A78U A94U", "self-cleavage": 0.3}
{"variant": "U26A A138G", "self-cleavage": 1.25}
{"variant": "U109C U130A", "self-cleavage": 1.24}
{"variant": "G44C U112C", "self-cleavage": 1.18}
{"variant": "U20C A59U", "self-cleavage": 0.82}
{"variant": "G58U C71U", "self-cleavage": 0.04}
{"variant": "U52C G114A", "self-cleavage": 1.24}
{"variant": "A65G C68A", "self-cleavage": 0.04}
{"variant": "U62C C99A", "self-cleavage": 0.03}
{"variant": "A6G A42G", "self-cleavage": 1.15}
{"variant": "U13G C113U", "self-cleavage": 1.11}
{"variant": "U26A G80U", "self-cleavage": 1.21}
{"variant": "A67G A121U", "self-cleavage": 0.51}
{"variant": "C68U U115A", "self-cleavage": 0.2}
{"variant": "U20C U96A", "self-cleavage": 0.12}
{"variant": "A30G A141G", "self-cleavage": 1.26}
